{
  "source": "patent US20210113652A1",
  "about": "“MASPIN-BASED INHIBITION OF OSTEOCLAST ACTIVITY AND PROMOTION OF BONE FORMATION” (Northwestern University, priority 2016, published 2021)",
  "key": {"[1]": {"tested_on": "mouse tibiae inoculated with mammary tumor cells TM40D or maspin-expressing TM40D-Mp", "assay": "Osteolytic bone degradation in tumor-inoculated BALB/c mice (X-ray, H&E, TRAP staining of tibiae)", "format": "in vivo", "text": "FIG. 1. […] Panel A-B: Representative X-ray radiographs of mouse tibiae inoculated with mammary tumor cells TM40D (Panel A) or maspin-expressing TM40D-Mp tumor cells (Panel B), at the end point of 4 weeks following tumor inoculation. Note that mice inoculated with TM40D tumors display severe osteolytic lesion comparing to that with TM40D-Mp cells. Panel E: Summary of osteolytic lesion data (radiography analysis) in 20 mice (10 mice/group) at 2-week and 4-week time points. Panel C: Histological analysis of bone section of tumor-inoculated tibiae by H&E staining. Arrow heads indicate osteoclastic cells. Panel D: TRAP (tartrate-resistant acid phosphatase) staining of osteoclastic cells in bone sections. Arrows indicate osteoclastic cells. Panel F: Summary of TRAP staining data of osteoclasts in mouse tibiae inoculated with TM40D or TM40D-Mp cells."}, "[2]": {"assay": "Long-term treatment with maspin in animals", "format": "in vivo", "text": "Because bone is tissue under constant balancing actions between bone-degrading osteoclasts and bone-forming osteoblasts, inhibiting the formation and activity of osteoclasts will favor or promote osteoblastic activity, thereby promoting new bone formation and bone wound healing. Further, maspin is naturally produced by osteoblasts in the bone microenvironment. This represents a previously unappreciated and unexploited mechanism for osteoblast-produced maspin counteracting the effect of osteclastic activity. […] Therefore, maspin may be delivered to human patients as a non-toxic therapeutic product against various bone diseases."}, "[3]": {"tested_on": "mature osteoclasts from RAW246.7", "assay": "Osteoclast actin ring formation (phalloidin staining)", "format": "cell-based", "settings": "RANKL 50 ng/ml pre-culture 8 days; 2 hours at 37° C.", "method": "FIG. 6. Panels A-C: Maspin inhibits osteoclast actin ring formation. Osteoclasts display osteolytic activity by forming actin rings. RAW246.7 were pre-cultured with RANKL (50 ng/ml) for 8 days to form mature osteoclasts. Cells were first washed with cold PBS twice to disrupt actin rings, warm medium with RANKL were added to cell culture with or without Gst or GST-maspin and cells were then cultured for 2 hours at 37° C. Cells were then washed and stained with phalloidin for actin ring formation. Cells with strong and clear actin ring belts were counted as positive. Five fields of cell staining were counted for each sample and experiments repeated three times. The percentage of cells forming strong and clear actin rings was calculated."}, "[4]": {"tested_on": "primary bone marrow cells", "assay": "Osteoclastogenesis in mouse primary bone marrow co-culture assay (TRAP staining)", "format": "cell-based", "settings": "bone marrow cells co-cultured with TM40D-Mp vs TM40D cells; TRAP-positive cells with 2 or more nuclei", "text": "FIG. 2. […] Osteoclastogenesis analyses of primary bone marrow cells co-cultured with breast cancer cells with or without maspin expression. (Panel A) Newly isolated primary bone marrow cells only (control). (Panel B) Bone marrow cells co-cultured with mammary tumor TM40D cells. (Panel C) Bone marrow cells co-cultured with maspin-expressing TM40D-Mp cells. (Panel D) Bone marrow cells co-cultured with TM40D-Mp cells and rabbit anti-maspin antibody. (Panel E) Bone marrow cells co-cultured with TM40D-Mp cells and rabbit IgG. (F) Summary of percentage of osteoclasts in co-cultured cells analyzed by TRAP staining. TRAP-positive cells containing 2 or more nuclei are defined as osteoclasts."}, "calvariae": {"tested_on": "calvariae", "assay": "New bone formation in ex vivo calvariae organ culture model", "parameters": "species or system BABL/c new-born mice", "settings": "7 days organ culture", "text": "FIG. 7. […] Panel A, calvariae were removed from 4 days-old BABL/c new-born mice and cultured in an ex vivo organ culture medium. They were either treated with or without concentrated conditional medium from mouse mammary tumor TM40D cells or maspin-expressing TM40D-Mp cells or with recombinant maspin (GST-Mp) with or without an anti-maspin antibody for 7 days. H&E staining of representative images were shown. Arrows indicate osteoblast cells. Arrowhead indicates new bone area. Panel B, quantitation of the average number of osteoblasts under different treatments listed in Panel A."}, "[5]": {"settings": "overexpression of maspin in vivo; cited from earlier work"}, "RAW246.7 cells": {"tested_on": "RAW246.7 cells", "assay": "Differentiation assay of pre-osteoclastic RAW246.7 cells under RANKL (TRAP staining)", "format": "cell-based", "settings": "maspin 0.1-10 ug/ml; RANKL 50-100 ng/ml; 8 days", "method": "FIG. 3. […] RAW246.7 cells were treated with RANKL (50 -100 ng/ml) and different doses of maspin for 8 days, and cell cultures were used for TRAP staining."}},
  "data": [
    {"molecule": "Maspin: Maspin (mammary serine protease inhibitor), a serpin protein encoded by the SERPINB5 gene; human wild-type is SEQ ID NO: 1 (protein, listed as Homo sapiens) MDALQLANSAFAVDLFKQLCEKEPLGNVLFSPICLSTSLSLAQVGAKGDTANEIGQVLHFENVKDIPFGFQTVTSDVNKLSSFYSLKLIKRLYVDKSLNLSTEFISSTKRPYAKELETVDFKDKLEETKGQINNSIKDLTDGHFENILADNSVNDQTKILVVNAAYFVGKWMKKFPESETKECPFRLNKTDTKPVQMMNMEATFCMGNIDSINCKIIELPFQNKHLSMFILLPKDVEDESTGLEKIEKQLNSESLSQWTNPSTMANAKVKLSIPKFKVEKMIDPKACLENLGLKHIFSEDTSDFSGMSETKGVALSNVIHKVCLEITEDGGDSIEVPGARILQHKDELNADHPFIYIIRHNKTRNIIFFGKFCSP", "values": [
      {"measurement": "osteoclast numbers (TRAP staining) in mouse tibiae", "setting": "[1]; TM40D-Mp vs TM40D tumor cells", "value": "significantly decreased osteoclast numbers"},
      {"measurement": "osteolytic bone degradation (radiography)", "setting": "[1]; tibiae inoculated with TM40D-Mp vs TM40D tumor cells, 2-week and 4-week time points", "value": "inhibits osteolytic bone degradation"},
      {"measurement": "side effects", "setting": "[2]", "value": "no side effects"},
      {"measurement": "percentage of cells forming strong and clear actin rings", "setting": "[3]", "value": 53, "unit": "%"},
      {"measurement": "osteoclast formation", "setting": "[4]", "value": "inhibits osteoclast formation"},
      {"measurement": "new bone formation", "setting": "calvariae", "value": "promotes new bone formation"},
      {"measurement": "toxic side effects", "setting": "[5]", "value": "does not have any observable toxic side effects"},
      {"measurement": "osteoclast formation under RANKL stimulation", "setting": "RAW246.7 cells", "value": "completely inhibits osteoclast formation"}
    ]}
  ]
}
